Measurements published in FireProtDB (doi:10.1006/jmbi.2001.4728).

Conditions: Pseudomonas aeruginosa (strain ATCC 15692 / DSM 22644 / CIP 104116 / JCM 14847 / LMG 12228 / 1C / PRS 101 / PAO1); pH 7; 10 °C; Urea; Fluorescence; sodium phosphate 50 mM; reversible: yes; whole UniProt chain shown

B1: Cytochrome c-551 wild type, P00099 (protein)
chain: MKPYALLSLLATGTLLAQGAWAEDPEVLFKNKGCVACHAIDTKMVGPAYKDVAAKFAGQAGAEAELAQRIKNGSQGVWGPIPMPPNAVSDDEAQTLAKWVLSQK
For B1, the denaturant m value was 1.1 kcal/mol/M, the “denaturant midpoint (higher = more stable)” value was 6.4 M and the unfolding free energy was 29.7 kJ/mol.
